Publication PMC9864772

Tested on: PTB1 (polypyrimidine-tract-binding protein isoform 1)
Experiment: filter binding

Substance	Kd
EMCV 5'UTR RNA	127 nM
HCV 5'UTR RNA	242 nM
